Data published in PMC6007841.

Tests used:
[1] = molecular target: human melanocortin 5 receptor (human) (UniProt P33032)
[2] = molecular target: mouse melanocortin 5 receptor (mouse) (UniProt P41149)
[3] = molecular target: mouse melanocortin 1 receptor (mouse) (UniProt Q01727)
[4] = molecular target: human melanocortin 3 receptor (human) (UniProt P41968)
[5] = molecular target: mouse melanocortin 4 receptor (mouse) (UniProt P56450)
[6] = molecular target: mouse melanocortin 3 receptor (mouse) (UniProt P33033)
Chain of mouse melanocortin 3 receptor (mouse) (P33033 whole entry): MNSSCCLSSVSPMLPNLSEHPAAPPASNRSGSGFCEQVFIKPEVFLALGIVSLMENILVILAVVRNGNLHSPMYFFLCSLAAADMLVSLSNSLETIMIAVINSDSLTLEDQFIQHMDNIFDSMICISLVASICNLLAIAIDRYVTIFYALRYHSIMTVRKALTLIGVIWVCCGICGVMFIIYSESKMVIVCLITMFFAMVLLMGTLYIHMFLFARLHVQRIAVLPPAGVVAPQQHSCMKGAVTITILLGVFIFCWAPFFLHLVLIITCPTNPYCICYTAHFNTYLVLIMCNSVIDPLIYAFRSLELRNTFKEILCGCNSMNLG

[7] = molecular target: human melanocortin 4 receptor (human) (UniProt P32245)
Chain of human melanocortin 4 receptor (human) (P32245 whole entry): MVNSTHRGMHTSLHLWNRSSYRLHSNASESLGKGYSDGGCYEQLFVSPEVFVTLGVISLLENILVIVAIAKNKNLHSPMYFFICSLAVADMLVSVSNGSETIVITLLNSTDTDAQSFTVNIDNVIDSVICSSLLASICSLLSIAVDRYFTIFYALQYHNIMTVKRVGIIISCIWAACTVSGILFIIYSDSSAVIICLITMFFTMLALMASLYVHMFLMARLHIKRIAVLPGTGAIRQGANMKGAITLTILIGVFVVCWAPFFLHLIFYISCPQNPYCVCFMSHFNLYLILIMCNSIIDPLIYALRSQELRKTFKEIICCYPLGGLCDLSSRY

[8] = molecular target: human melanocortin 1 receptor (human) (UniProt Q01726)
Chain of human melanocortin 1 receptor (human) (Q01726 whole entry): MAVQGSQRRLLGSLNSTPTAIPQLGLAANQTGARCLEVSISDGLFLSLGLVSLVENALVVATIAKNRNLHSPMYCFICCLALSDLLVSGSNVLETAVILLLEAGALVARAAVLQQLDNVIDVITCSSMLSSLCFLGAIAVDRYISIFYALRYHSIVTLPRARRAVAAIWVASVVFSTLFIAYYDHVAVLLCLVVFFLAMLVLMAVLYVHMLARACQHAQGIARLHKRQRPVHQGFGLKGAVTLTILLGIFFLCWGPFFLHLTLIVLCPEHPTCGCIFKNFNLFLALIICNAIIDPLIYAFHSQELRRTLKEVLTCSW

Chain of human melanocortin 3 receptor (human) (P41968 whole entry): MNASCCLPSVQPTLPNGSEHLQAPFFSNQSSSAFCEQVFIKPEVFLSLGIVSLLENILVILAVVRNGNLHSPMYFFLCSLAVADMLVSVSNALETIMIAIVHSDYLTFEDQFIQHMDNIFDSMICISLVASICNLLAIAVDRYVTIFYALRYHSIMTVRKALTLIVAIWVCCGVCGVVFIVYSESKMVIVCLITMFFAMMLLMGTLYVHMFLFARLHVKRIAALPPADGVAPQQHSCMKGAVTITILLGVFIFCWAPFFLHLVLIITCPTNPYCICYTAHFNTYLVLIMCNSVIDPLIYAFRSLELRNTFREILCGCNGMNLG
Chain of human melanocortin 5 receptor (human) (P33032 whole entry): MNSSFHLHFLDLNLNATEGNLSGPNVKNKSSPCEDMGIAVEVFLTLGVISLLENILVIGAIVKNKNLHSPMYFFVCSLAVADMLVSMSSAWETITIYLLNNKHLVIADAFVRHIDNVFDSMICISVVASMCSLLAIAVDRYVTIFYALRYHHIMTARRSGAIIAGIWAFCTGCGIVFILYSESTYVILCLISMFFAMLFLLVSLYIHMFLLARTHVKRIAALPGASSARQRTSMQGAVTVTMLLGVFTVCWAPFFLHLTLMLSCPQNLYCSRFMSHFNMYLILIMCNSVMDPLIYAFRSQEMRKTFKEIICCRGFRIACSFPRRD
Chain of mouse melanocortin 4 receptor (mouse) (P56450 whole entry): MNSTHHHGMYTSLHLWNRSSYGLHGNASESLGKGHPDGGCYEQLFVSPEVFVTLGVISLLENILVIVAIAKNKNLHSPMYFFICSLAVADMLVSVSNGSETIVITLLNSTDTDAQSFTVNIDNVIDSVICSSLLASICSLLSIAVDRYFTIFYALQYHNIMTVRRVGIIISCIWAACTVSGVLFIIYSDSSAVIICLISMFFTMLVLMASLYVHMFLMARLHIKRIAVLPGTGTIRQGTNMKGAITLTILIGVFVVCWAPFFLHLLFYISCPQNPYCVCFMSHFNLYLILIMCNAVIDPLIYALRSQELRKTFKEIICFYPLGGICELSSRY
Chain of mouse melanocortin 1 receptor (mouse) (Q01727 whole entry): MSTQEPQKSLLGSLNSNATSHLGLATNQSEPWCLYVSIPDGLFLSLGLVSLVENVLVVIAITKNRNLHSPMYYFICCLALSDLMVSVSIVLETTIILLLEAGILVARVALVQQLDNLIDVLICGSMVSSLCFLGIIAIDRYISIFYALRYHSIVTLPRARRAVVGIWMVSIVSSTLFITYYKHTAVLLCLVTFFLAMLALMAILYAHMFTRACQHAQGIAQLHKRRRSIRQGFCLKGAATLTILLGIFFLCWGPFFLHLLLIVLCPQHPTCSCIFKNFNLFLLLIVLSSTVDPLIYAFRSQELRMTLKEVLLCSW
Chain of mouse melanocortin 5 receptor (mouse) (P41149 whole entry): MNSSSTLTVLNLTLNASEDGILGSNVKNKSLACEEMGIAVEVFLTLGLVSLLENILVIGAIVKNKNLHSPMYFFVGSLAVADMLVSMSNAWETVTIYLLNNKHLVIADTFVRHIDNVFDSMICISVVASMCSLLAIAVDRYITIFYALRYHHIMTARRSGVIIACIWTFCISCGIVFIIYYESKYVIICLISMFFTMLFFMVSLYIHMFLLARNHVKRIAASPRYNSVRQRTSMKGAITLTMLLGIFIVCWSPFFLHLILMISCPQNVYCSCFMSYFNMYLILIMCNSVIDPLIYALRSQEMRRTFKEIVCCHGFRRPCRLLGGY

cAMP agonist EC50 (AlphaScreen cAMP assay, HEK293 cells expressing the receptor) [1]: 0.4 nM
cAMP agonist EC50 (AlphaScreen cAMP assay, HEK293 cells expressing the receptor) [2]: 0.41 nM
cAMP agonist EC50 (AlphaScreen cAMP assay, HEK293 cells expressing the receptor) [3]: 0.04 nM
cAMP agonist EC50 (AlphaScreen cAMP assay, HEK293 cells expressing the receptor) [4]: 0.3 nM
cAMP agonist EC50 (AlphaScreen cAMP assay, HEK293 cells expressing the receptor) [5]: 0.87 nM
cAMP agonist EC50 (AlphaScreen cAMP assay, HEK293 cells expressing the receptor) [6]: 0.33 nM
cAMP agonist EC50 (AlphaScreen cAMP assay, HEK293 cells expressing the receptor) [7]: 0.13 nM
cAMP agonist EC50 (AlphaScreen cAMP assay, HEK293 cells expressing the receptor) [8]: 0.07 nM
Substance: NDP-MSH (peptide)
